Results taken from PMC6451337, “The Toxoplasma gondii dense granule protein TgGRA3 interacts with host Golgi and dysregulates anterograde transport” (Biology Open, 2019).

Legend:
[1] = target: the molecule itself; assay: native gel or EMSA; proteins cleaved from glutathione-Sepharose beads with PreScission protease in 25 mM Tris pH 8, 1 mM DTT, 0.5 mM PMSF, 1 mM EDTA; 10% Tris-glycine native gel, unheated against heated; Coomassie Blue stain and Western blot
[2] = target: the molecule itself; assay: SEC; GRA3_(43-161) cleaved from GST with PreScission protease, Superdex 200 Increase 3.2/300 column, AKTA Micro FPLC; protein standards 12,000-200,000 for the standard curve

B1: GRA3_HA-Δ43-71 (domain or fragment, Toxoplasma gondii, UniProt B6KEU8 72-161, looked up)
chain: ESYSSATSGVQEATAPGAVLLDAIDAESDKVDNQAEGGERMKKVEEELSLLRRELYDRTDRPGLKRAVILSLATSAAIGGRMVSRTLRDN
notes: also called GST-HA-Δ43-71, after cleavage; source: E. coli BL21, captured on glutathione-Sepharose beads, cleaved with PreScission protease; not shown: GST, N-terminal, cleaved; HA, N-terminal, kept
binding result [1]: binds

B2: GRA3_(43-161), cleaved from GST (domain or fragment, Toxoplasma gondii, UniProt B6KEU8 43-161, looked up)
chain: ADQPENHQALAEPVTGVGEAGVSPVNEAGESYSSATSGVQEATAPGAVLLDAIDAESDKVDNQAEGGERMKKVEEELSLLRRELYDRTDRPGLKRAVILSLATSAAIGGRMVSRTLRDN
notes: amplified from parasite cDNA; Cloned at the BamHI site of pGEX6-P3; also called TgGRA3 recombinant protein; source: E. coli BL21, purified on glutathione-Sepharose, cleaved with PreScission protease; not shown: GST, N-terminal, cleaved
stoichiometry N [2]: 2
